Values joined by “and” are separate entries in the source; they are usually repeats but may differ in a detail not shown here. Equal entries are not always repeated.
Assays:
Type in all cases: cell-based, Homo sapiens
[1] = tested on: hCMEC/D3 mono-culture BBB model; experiment: TEER of hCMEC/D3 mono-culture BBB model; conditions: for TEER: individual replicates
p-ERK/ERK = experiment: Western blot of p-ERK/ERK in hCMEC/D3 cells
Method: (§1) Whole-cell and tissue lysates, nucleoprotein, and cytoplasmic protein were prepared using RIPA Lysis Buffer (Beyotime, Shanghai, China) as the described method ([Wu et al., 2021]). Proteins were separated through sodium dodecyl sulfate–polyacrylamide gel electrophoresis and transferred onto nitrocellulose or polyvinylidene difluoride membranes. The membranes were blocked with 5% skim milk and incubated with corresponding primary antibodies at 4°C overnight. After being washed with Tris-buffered saline Tween buffer, the membranes were incubated with secondary antibodies (Cell Signaling Technology, MA, USA) at 1:3000 dilution: Anti-mouse IgG, HRP-linked Antibody (#7076), Anti-rabbit IgG, HRP-linked Antibody (#7074). Protein levels were visualized using a highly sensitive ECL western blotting substrate and a gel imaging system (Tanon Science & Technology, Shanghai, China).
(§2) Exogenous and endogenous GDNF in the medium was neutralized with anti-GDNF antibody (#AF-212-NA, R&D system, Minneapolis, MN, USA). 0.25, 0.5, and 1.0 μg/ml anti-GDNF antibody was added into the US-CM or medium containing 200 pg/ml GDNF, and then the medium was preincubated at 4°C for 1 hr. The hCMEC/D3 cells were incubated with 200 pg/ml GDNF or US-CM containing anti-GDNF antibody or not for 6 days, and then cell lysate was collected for western blot. The medium was replaced every 24 hr.

FOXO1 = experiment: Western blot of FOXO1 (p-FOXO1/FOXO1, total, cytoplasmic, nuclear) in hCMEC/D3 cells; conditions: for FOXO1/Lamin B Relative Expression, Mean / FOXO1/Lamin B Relative Expression: Nucleus Protein
Method: as §1
Here, hCMEC/D3 cells were plated in the plates or culture dishes at 6 × 10^4 cells/cm^2 and transfected with 10 nM of negative control or human FOXO1, ETS1, and CDH5 siRNA (Tsingke Biotechnology, Beijing, China) for 12 hr using Lipofectamine 3000 (Invitrogen, Carlsbad, CA, USA) reagent according to the manufacturer’s instructions. Cells were then incubated with a medium containing GDNF for 72 hr.
The plasmids encoding FOXO1 (EX-Z7404-M02) were constructed by GeneCopoeia (Rockville, MD, USA). The hCMEC/D3 cells were plated in plates or dishes at 6 × 10^4 cells/cm^2. They were subsequently transfected with 1 µg of negative control or plasmids encoding FOXO1 6 hr using Lipofectamine 3000 reagent according to the manufacturer’s instructions. Transfected cells were then incubated with the medium containing GDNF for 72 hr.

p-AKT/AKT = experiment: Western blot of p-AKT/AKT in hCMEC/D3 cells
Method: as §1, §2

[2] = hCMEC/D3 cells, 200 pg/ml GDNF or US-CM
[3] = mean of 4, relative to Con, GDNF alone, Figure 3E
[4] = single replicate, relative to Con, GDNF alone, Figure 3E
[5] = Cytoplasm protein, Figure 4F, group mean, Con = 1.000
[6] = Cytoplasm protein, Figure 4F, individual replicates, relative to Con
[7] = Figure 4B, Cytoplasm Protein, group mean, Con = 1.000
[8] = Figure 4B, Cytoplasm Protein, individual replicates, relative to Con

B1: GDNF: glial cell line-derived neurotrophic factor, recombinant protein (R&D system) (protein, UniProt P39905 78-211, looked up)
Glial cell line-derived …: SPDKQMAVLPRRERNRQAAAANPENSRGKGRRGQRGKNRGCVLTAIHLNVTDLGLGYETKEELIFRYCSGSCDAAETTYDKILKNLSRNRRLVSDKVGQACCRPIAFDDDLSFLDDNLVYHILRKHSAKRCGCI
- TEER ([1]; Figure 2M, Day4): 64.35 Ω·cm2 and 63.69 Ω·cm2 and 66 Ω·cm2 and 65.34 Ω·cm2
- TEER ([1]; Figure 2M, Day5): 68.31 Ω·cm2 and 66.99 Ω·cm2 and 67.65 Ω·cm2 and 67.32 Ω·cm2
- TEER ([1]; Figure 2M, Day6): 69.3 Ω·cm2 and 67.32 Ω·cm2 and 68.64 Ω·cm2 and 66.99 Ω·cm2
- TEER ([1]; Figure 2O, Day3): 71.61 Ω·cm2 and 69.3 Ω·cm2 and 68.64 Ω·cm2 and 69.63 Ω·cm2
- TEER ([1]; Figure 2O, Day4): 74.25 Ω·cm2 and 76.23 Ω·cm2 and 72.27 Ω·cm2 and 74.91 Ω·cm2
- TEER ([1]; Figure 2O, Day5): 77.22 Ω·cm2 and 72.93 Ω·cm2 and 74.58 Ω·cm2 and 77.55 Ω·cm2
- TEER ([1]; Figure 2O, Day6): 76.23 Ω·cm2 and 73.92 Ω·cm2 and 76.56 Ω·cm2
- TEER values ([1]; hCMEC/D3 mono-culture, 200 pg/ml GDNF, day 6): significantly increased
- phosphorylation of ERK (p-ERK) (p-ERK/ERK; [2]): accompanied by the phosphorylation
- p-ERK/ERK Relative Expression, Mean (p-ERK/ERK; [3]): 1.352
- p-ERK/ERK Relative Expression, Mean (p-ERK/ERK; relative to Con (mean 1.000), mean of 4, Figure 3B): 1.377
- p-ERK/ERK Relative Expression (p-ERK/ERK; relative to Con (mean 1.000), single replicates, Figure 3B): 1.512 and 1.333 and 1.310 and 1.351
- p-ERK/ERK Relative Expression (p-ERK/ERK; [4]): 1.315 and 1.511 and 1.307 and 1.277
- FOXO1/GAPDH Relative Expression, Mean (FOXO1; [5]): 1.482
- p-FOXO1/GAPDH Relative Expression, Mean (FOXO1; [5]): 1.560
- FOXO1/GAPDH Relative Expression (FOXO1; [6]): 1.349 and 1.335 and 1.673 and 1.570
- p-FOXO1/GAPDH Relative Expression (FOXO1; [6]): 1.317 and 1.387 and 1.877 and 1.660
- p-FOXO1/FOXO1 Relative Expression, Mean (FOXO1; Figure 4A, group mean, Con = 1.000): 2.044
- p-FOXO1/FOXO1 Relative Expression (FOXO1; Figure 4A, individual replicates, relative to Con): 2.153 and 1.987 and 1.525 and 2.510
- FOXO1/β-actin Relative Expression, Mean (FOXO1; Figure 4A, total FOXO1, group mean, Con = 1.000): 0.802
- FOXO1/β-actin Relative Expression (FOXO1; Figure 4A, total FOXO1, individual replicates, relative to Con): 0.773 and 0.798 and 1.007 and 0.631
- FOXO1/GAPDH Relative Expression, Mean (FOXO1; [7]): 1.680
- p-FOXO1/GAPDH Relative Expression, Mean (FOXO1; [7]): 1.601
- FOXO1/GAPDH Relative Expression (FOXO1; [8]): 1.609 and 1.840 and 1.778 and 1.494
- p-FOXO1/GAPDH Relative Expression (FOXO1; [8]): 1.850 and 1.523 and 1.386 and 1.647
- FOXO1/Lamin B Relative Expression, Mean (FOXO1; Figure 4B, group mean, Con = 1.000): 0.556
- FOXO1/Lamin B Relative Expression (FOXO1; Figure 4B, individual replicates, relative to Con): 0.674 and 0.519 and 0.531 and 0.499
- FOXO1/Lamin B Relative Expression, Mean (FOXO1; Figure 4F, group mean, Con = 1.000): 0.751
- FOXO1/Lamin B Relative Expression (FOXO1; Figure 4F, individual replicates, relative to Con): 0.817 and 0.783 and 0.758 and 0.647
- p-FOXO1/FOXO1 Relative Expression, Mean (FOXO1; Whole cell lysate, Figure 4F, group mean, Con = 1.000): 1.362
- p-FOXO1/FOXO1 Relative Expression (FOXO1; Whole cell lysate, Figure 4F, individual replicates, relative to Con): 1.502 and 1.205 and 1.426 and 1.314
- FOXO1 phosphorylation (p-FOXO1) (FOXO1; hCMEC/D3 cells, GDNF or US-CM): significantly enhanced
- levels of nuclear FOXO1 (FOXO1; hCMEC/D3 cells, GDNF or US-CM): decreased
- levels of phosphorylated and unphosphorylated FOXO1 in the cytoplasm (FOXO1; hCMEC/D3 cells, GDNF or US-CM): increased
- phosphorylation of AKT (p-AKT) (p-AKT/AKT; [2]): accompanied by the phosphorylation
- p-AKT/AKT Relative Expression, Mean (p-AKT/AKT; [3]): 1.284
- p-AKT/AKT Relative Expression, Mean (p-AKT/AKT; relative to Con (mean 1.000), mean of 4, Figure 3A): 1.345
- p-AKT/AKT Relative Expression (p-AKT/AKT; relative to Con (mean 1.000), single replicates, Figure 3A): 1.311 and 1.24 and 1.38 and 1.4488
- p-AKT/AKT Relative Expression (p-AKT/AKT; [4]): 1.359 and 1.208 and 1.388 and 1.180
